In article PMC11077089, “Molecular basis of A. thaliana KEOPS complex in biosynthesizing tRNA t6A”:

What was measured:
Assay in all cases: MST; MST: 20 mM PBS pH 7.5, 300 mM NaCl, 0.05% Tween 20, 25 C, 50 nM RNA; EMSA: 20 mM Tris-HCl pH 7.5, 300 mM NaCl, 5 mM b-mercaptoethanol, 20% glycerol, agarose gel in Tris-glycine pH 8.0 (8.5 for FAM-RNA), 4 C
Conditions in all cases: protein: recombinant;recombinant;recombinant;recombinant; tags: none (6His on partner PCC1);;6His (C-term);6His (C-term); chain copies: 2;2;2;2; label: 5' 6-FAM; tRNA cloverleaf
[1] = target: T1, KAE1;BUD32 T162R;CGI121;PCC1 (Arabidopsis thaliana;Arabidopsis …, UniProt O49653;Q94K14;Q6NMZ4;Q8GWD7 1-353;1-226;1-172;1-96, |T162R||)
T1 sequence 1: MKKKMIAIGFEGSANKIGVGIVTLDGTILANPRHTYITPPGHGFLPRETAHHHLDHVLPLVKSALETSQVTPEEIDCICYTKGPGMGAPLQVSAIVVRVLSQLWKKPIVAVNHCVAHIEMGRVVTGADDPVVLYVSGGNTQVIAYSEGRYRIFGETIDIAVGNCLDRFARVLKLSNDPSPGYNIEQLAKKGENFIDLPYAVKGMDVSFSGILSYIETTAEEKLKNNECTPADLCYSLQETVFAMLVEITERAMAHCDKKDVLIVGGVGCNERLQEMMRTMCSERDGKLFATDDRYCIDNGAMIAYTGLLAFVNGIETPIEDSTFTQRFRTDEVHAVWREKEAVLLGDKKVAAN
T1 sequence 2: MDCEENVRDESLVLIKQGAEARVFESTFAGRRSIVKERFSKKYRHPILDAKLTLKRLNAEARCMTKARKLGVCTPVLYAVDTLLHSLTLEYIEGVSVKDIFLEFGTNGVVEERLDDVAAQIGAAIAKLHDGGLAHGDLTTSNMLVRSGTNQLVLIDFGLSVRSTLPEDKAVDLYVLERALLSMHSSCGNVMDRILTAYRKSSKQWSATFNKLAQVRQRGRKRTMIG
T1 sequence 3: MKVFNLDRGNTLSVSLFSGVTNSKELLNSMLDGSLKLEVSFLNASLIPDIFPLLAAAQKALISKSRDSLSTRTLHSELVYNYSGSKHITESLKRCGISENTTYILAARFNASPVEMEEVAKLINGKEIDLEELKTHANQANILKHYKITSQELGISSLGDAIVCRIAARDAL
T1 sequence 4: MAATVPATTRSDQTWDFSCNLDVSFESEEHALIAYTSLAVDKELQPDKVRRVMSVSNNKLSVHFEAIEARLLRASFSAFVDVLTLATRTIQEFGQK

[2] = target: T2, KAE1;BUD32 K55E;CGI121;PCC1 (Arabidopsis thaliana;Arabidopsis …, UniProt O49653;Q94K14;Q6NMZ4;Q8GWD7 1-353;1-226;1-172;1-96, |K55E||)
T2 sequence 1: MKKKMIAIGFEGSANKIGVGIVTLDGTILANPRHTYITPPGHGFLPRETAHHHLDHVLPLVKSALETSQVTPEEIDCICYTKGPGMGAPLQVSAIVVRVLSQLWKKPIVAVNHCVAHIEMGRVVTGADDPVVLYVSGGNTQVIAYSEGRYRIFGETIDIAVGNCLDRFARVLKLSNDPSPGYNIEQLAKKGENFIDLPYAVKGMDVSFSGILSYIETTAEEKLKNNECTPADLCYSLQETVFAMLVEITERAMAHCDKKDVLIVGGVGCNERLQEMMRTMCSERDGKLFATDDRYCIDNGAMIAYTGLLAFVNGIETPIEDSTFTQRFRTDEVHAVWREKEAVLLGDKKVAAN
T2 sequence 2: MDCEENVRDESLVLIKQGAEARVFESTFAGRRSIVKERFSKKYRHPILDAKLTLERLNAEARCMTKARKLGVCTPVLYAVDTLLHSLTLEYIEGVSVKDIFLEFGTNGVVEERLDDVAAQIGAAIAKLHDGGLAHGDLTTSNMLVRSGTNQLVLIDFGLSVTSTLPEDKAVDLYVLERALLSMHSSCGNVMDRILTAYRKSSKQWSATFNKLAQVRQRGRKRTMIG
T2 sequence 3: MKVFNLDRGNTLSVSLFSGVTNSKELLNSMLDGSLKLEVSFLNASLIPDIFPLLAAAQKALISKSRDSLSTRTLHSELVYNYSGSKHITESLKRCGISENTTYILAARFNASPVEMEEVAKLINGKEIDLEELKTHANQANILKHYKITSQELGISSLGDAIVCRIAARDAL
T2 sequence 4: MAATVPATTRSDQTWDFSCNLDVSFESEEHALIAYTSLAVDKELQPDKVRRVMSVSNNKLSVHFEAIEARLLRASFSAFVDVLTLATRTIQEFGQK

[3] = target: T3, KAE1;BUD32 K51E;CGI121;PCC1 (Arabidopsis thaliana;Arabidopsis …, UniProt O49653;Q94K14;Q6NMZ4;Q8GWD7 1-353;1-226;1-172;1-96, |K51E||)
T3 sequence 1: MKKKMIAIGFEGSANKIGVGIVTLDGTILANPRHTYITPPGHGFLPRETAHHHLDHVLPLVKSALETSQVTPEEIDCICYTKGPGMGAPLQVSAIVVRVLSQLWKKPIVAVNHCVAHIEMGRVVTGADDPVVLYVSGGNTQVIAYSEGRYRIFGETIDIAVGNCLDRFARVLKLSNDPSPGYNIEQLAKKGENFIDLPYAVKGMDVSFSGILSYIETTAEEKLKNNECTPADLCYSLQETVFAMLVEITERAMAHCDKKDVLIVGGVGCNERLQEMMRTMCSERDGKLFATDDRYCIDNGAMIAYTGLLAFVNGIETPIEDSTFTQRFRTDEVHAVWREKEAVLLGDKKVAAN
T3 sequence 2: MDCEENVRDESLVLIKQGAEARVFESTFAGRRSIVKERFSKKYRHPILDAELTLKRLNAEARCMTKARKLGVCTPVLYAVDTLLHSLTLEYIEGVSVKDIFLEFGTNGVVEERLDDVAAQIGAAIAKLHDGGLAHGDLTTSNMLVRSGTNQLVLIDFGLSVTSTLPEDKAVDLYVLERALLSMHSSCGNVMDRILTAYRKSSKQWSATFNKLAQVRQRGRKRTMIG
T3 sequence 3: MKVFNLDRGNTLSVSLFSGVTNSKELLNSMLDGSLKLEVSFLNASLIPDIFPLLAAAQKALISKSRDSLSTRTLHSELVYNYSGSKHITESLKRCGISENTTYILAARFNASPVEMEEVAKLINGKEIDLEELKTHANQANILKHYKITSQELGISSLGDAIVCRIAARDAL
T3 sequence 4: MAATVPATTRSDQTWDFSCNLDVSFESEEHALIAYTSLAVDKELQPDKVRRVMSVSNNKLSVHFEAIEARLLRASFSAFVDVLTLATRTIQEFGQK

[4] = target: T4, KAE1;BUD32 N58R;CGI121;PCC1 (Arabidopsis thaliana;Arabidopsis …, UniProt O49653;Q94K14;Q6NMZ4;Q8GWD7 1-353;1-226;1-172;1-96, |N58R||)
T4 sequence 1: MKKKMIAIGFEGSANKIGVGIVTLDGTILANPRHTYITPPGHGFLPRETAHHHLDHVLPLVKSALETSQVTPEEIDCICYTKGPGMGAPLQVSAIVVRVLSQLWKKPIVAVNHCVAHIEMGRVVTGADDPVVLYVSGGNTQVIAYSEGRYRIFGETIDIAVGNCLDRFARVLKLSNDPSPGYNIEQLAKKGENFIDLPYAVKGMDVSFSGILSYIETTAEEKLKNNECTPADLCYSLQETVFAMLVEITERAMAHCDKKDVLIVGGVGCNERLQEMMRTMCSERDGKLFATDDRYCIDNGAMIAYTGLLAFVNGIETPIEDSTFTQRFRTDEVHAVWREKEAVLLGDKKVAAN
T4 sequence 2: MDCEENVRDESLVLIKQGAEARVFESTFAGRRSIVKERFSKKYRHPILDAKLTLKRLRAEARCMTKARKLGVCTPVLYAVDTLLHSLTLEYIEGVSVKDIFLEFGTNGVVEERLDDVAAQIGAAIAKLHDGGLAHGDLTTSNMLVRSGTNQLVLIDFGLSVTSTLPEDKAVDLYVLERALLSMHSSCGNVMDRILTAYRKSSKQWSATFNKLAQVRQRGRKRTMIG
T4 sequence 3: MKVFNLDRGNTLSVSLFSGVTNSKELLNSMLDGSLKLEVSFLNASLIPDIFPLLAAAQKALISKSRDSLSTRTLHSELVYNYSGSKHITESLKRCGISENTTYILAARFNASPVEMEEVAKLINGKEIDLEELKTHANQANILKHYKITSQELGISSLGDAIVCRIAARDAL
T4 sequence 4: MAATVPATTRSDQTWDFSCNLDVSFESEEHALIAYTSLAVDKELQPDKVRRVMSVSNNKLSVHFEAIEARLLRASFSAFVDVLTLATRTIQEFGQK

B1: 5'-6FAM-tRNAArgCCU (structured_RNA)
RNA: GCGCCUGUAGCUCAGUGGAUAGAGCGUCUGUUUCCUAAGCAGAAGGUCGUAGGUUCGACCCCUACCUGGCGCGCCA
Binder B1 has a Kd [1] of 10.5 ± 2.99 µM, a Kd [2] of 104 ± 15.2 µM and a Kd [3] of 29.8 ± 10.7 µM. The Kd [4] was 9.81 ± 2.73 µM.
